Source: article PMC6921018, “The Loop of the TPR1 Subdomain of Phi29 DNA Polymerase Plays a Pivotal Role in Primer-Terminus Stabilization at the Polymerization Active Site” (Biomolecules, 2019)

Key:
[1] = molecular target: T1, Bacteriophage Phi29 terminal protein (TP) (bacteriophage Phi29, UniProt P03681 1-266); experiment: cell-based or functional assay
T1 sequence (looked up): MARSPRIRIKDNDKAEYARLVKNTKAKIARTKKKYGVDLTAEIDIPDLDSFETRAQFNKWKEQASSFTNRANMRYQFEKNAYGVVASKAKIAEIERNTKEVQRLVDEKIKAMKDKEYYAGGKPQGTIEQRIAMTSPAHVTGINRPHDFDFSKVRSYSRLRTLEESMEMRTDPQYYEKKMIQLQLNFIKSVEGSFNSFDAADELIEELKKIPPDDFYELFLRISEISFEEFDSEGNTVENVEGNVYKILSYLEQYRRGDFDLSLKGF

[2] = molecular target: T1, Bacteriophage Phi29 terminal protein …; experiment: cell-based or functional assay; remark: listed apart in the source

B1: Bacteriophage Phi29 DNA polymerase, wild-type (enzyme)
chain: MKHMPRKMYSCDFETTTKVEDCRVWAYGYMNIEDHSEYKIGNSLDEFMAWVLKVQADLYFHNLKFDGAFIINWLERNGFKWSADGLPNTYNTIISRMGQWYMIDICLGYKGKRKIHTVIYDSLKKLPFPVKKIAKDFKLTVLKGDIDYHKERPVGYKITPEEYAYIKNDIQIIAEALLIQFKQGLDRMTAGSDSLKGFKDIITTKKFKKVFPTLSLGLDKEVRYAYRGGFTWLNDRFKEKEIGEGMVFDVNSLYPAQMYSRLLPYGEPIVFEGKYVWDEDYPLHIQHIRCEFELKEGYIPTIQIKRSRFYKGNEYLKSSGGEIADLWLSNVDLELMKEHYDLYNVEYISGLKFKATTGLFKDFIDKWTYIKTTSEGAIKQLAKLMLNSLYGKFASNPDVTGKVPYLKENGALGFRLGEEETKDPVYTPMGVFITAWARYTTITAAQACYDRIIYCDTDSIHLTGTEIPDVIKDIVDPKKLGYWAHESTFKRAKYLRQKTYIQDIYMKEVDGKLVEGSPDDYTDIKFSVKCAGMTDKIKKEVTFENFKVGFSRKMKPKPVQVPGGVVLVDDTFTIK
**Q.** B1 was tested. Which “TP-dAMP formation with a limiting amount of TP (15 nM) in competition with the catalytically inactive DNA polymerase mutant D249E, at a D249E/wild-type ratio of 1 (interference assay)” value [1] did it give?
**A.** 2 fold

B2: Phi29 DNA polymerase mutant Y310A (enzyme, bacteriophage Phi29)
chain: MKHMPRKMYSCDFETTTKVEDCRVWAYGYMNIEDHSEYKIGNSLDEFMAWVLKVQADLYFHNLKFDGAFIINWLERNGFKWSADGLPNTYNTIISRMGQWYMIDICLGYKGKRKIHTVIYDSLKKLPFPVKKIAKDFKLTVLKGDIDYHKERPVGYKITPEEYAYIKNDIQIIAEALLIQFKQGLDRMTAGSDSLKGFKDIITTKKFKKVFPTLSLGLDKEVRYAYRGGFTWLNDRFKEKEIGEGMVFDVNSLYPAQMYSRLLPYGEPIVFEGKYVWDEDYPLHIQHIRCEFELKEGYIPTIQIKRSRFAKGNEYLKSSGGEIADLWLSNVDLELMKEHYDLYNVEYISGLKFKATTGLFKDFIDKWTYIKTTSEGAIKQLAKLMLNSLYGKFASNPDVTGKVPYLKENGALGFRLGEEETKDPVYTPMGVFITAWARYTTITAAQACYDRIIYCDTDSIHLTGTEIPDVIKDIVDPKKLGYWAHESTFKRAKYLRQKTYIQDIYMKEVDGKLVEGSPDDYTDIKFSVKCAGMTDKIKKEVTFENFKVGFSRKMKPKPVQVPGGVVLVDDTFTIK
**Q.** Which results are given for B2?
**A.** TP-dAMP formation with a limiting amount of TP in competition with the DNA polymerase mutant D249E, relative to that without competitor (interference assay) [1]: < 50%; protein-primed initiation (TP-dAMP formation) on Phi29 TP-DNA template, activity with respect to the wild-type enzyme (100) [2]: 30 % of wild-type

B3: Phi29 DNA polymerase mutant F309A (enzyme, bacteriophage Phi29)
chain: MKHMPRKMYSCDFETTTKVEDCRVWAYGYMNIEDHSEYKIGNSLDEFMAWVLKVQADLYFHNLKFDGAFIINWLERNGFKWSADGLPNTYNTIISRMGQWYMIDICLGYKGKRKIHTVIYDSLKKLPFPVKKIAKDFKLTVLKGDIDYHKERPVGYKITPEEYAYIKNDIQIIAEALLIQFKQGLDRMTAGSDSLKGFKDIITTKKFKKVFPTLSLGLDKEVRYAYRGGFTWLNDRFKEKEIGEGMVFDVNSLYPAQMYSRLLPYGEPIVFEGKYVWDEDYPLHIQHIRCEFELKEGYIPTIQIKRSRAYKGNEYLKSSGGEIADLWLSNVDLELMKEHYDLYNVEYISGLKFKATTGLFKDFIDKWTYIKTTSEGAIKQLAKLMLNSLYGKFASNPDVTGKVPYLKENGALGFRLGEEETKDPVYTPMGVFITAWARYTTITAAQACYDRIIYCDTDSIHLTGTEIPDVIKDIVDPKKLGYWAHESTFKRAKYLRQKTYIQDIYMKEVDGKLVEGSPDDYTDIKFSVKCAGMTDKIKKEVTFENFKVGFSRKMKPKPVQVPGGVVLVDDTFTIK
**Q.** For B3, which “TP-dAMP formation with a limiting amount of TP in competition with the DNA polymerase mutant D249E, relative to that without competitor (interference assay)” value [1] is on record?
**A.** < 50%

**Q.** And the “protein-primed initiation (TP-dAMP formation) on Phi29 TP-DNA template, activity with respect to the wild-type enzyme (100)” value [2]?
**A.** 25 % of wild-type

B4: Phi29 DNA polymerase mutant R306A (enzyme, bacteriophage Phi29)
chain: MKHMPRKMYSCDFETTTKVEDCRVWAYGYMNIEDHSEYKIGNSLDEFMAWVLKVQADLYFHNLKFDGAFIINWLERNGFKWSADGLPNTYNTIISRMGQWYMIDICLGYKGKRKIHTVIYDSLKKLPFPVKKIAKDFKLTVLKGDIDYHKERPVGYKITPEEYAYIKNDIQIIAEALLIQFKQGLDRMTAGSDSLKGFKDIITTKKFKKVFPTLSLGLDKEVRYAYRGGFTWLNDRFKEKEIGEGMVFDVNSLYPAQMYSRLLPYGEPIVFEGKYVWDEDYPLHIQHIRCEFELKEGYIPTIQIKASRFYKGNEYLKSSGGEIADLWLSNVDLELMKEHYDLYNVEYISGLKFKATTGLFKDFIDKWTYIKTTSEGAIKQLAKLMLNSLYGKFASNPDVTGKVPYLKENGALGFRLGEEETKDPVYTPMGVFITAWARYTTITAAQACYDRIIYCDTDSIHLTGTEIPDVIKDIVDPKKLGYWAHESTFKRAKYLRQKTYIQDIYMKEVDGKLVEGSPDDYTDIKFSVKCAGMTDKIKKEVTFENFKVGFSRKMKPKPVQVPGGVVLVDDTFTIK
**Q.** B4 was tested. Which “TP-dAMP formation with a limiting amount of TP in competition with the DNA polymerase mutant D249E, relative to that without competitor (interference assay)” value [1] did it give?
**A.** < 50%

**Q.** And the “protein-primed initiation (TP-dAMP formation) on Phi29 TP-DNA template, activity with respect to the wild-type enzyme (100)” value [2]?
**A.** 8 % of wild-type

B5: Phi29 DNA polymerase deletion mutant Δ6 lacking residues Arg306-Lys311 (enzyme, bacteriophage Phi29)
chain: MKHMPRKMYSCDFETTTKVEDCRVWAYGYMNIEDHSEYKIGNSLDEFMAWVLKVQADLYFHNLKFDGAFIINWLERNGFKWSADGLPNTYNTIISRMGQWYMIDICLGYKGKRKIHTVIYDSLKKLPFPVKKIAKDFKLTVLKGDIDYHKERPVGYKITPEEYAYIKNDIQIIAEALLIQFKQGLDRMTAGSDSLKGFKDIITTKKFKKVFPTLSLGLDKEVRYAYRGGFTWLNDRFKEKEIGEGMVFDVNSLYPAQMYSRLLPYGEPIVFEGKYVWDEDYPLHIQHIRCEFELKEGYIPTIQIKGNEYLKSSGGEIADLWLSNVDLELMKEHYDLYNVEYISGLKFKATTGLFKDFIDKWTYIKTTSEGAIKQLAKLMLNSLYGKFASNPDVTGKVPYLKENGALGFRLGEEETKDPVYTPMGVFITAWARYTTITAAQACYDRIIYCDTDSIHLTGTEIPDVIKDIVDPKKLGYWAHESTFKRAKYLRQKTYIQDIYMKEVDGKLVEGSPDDYTDIKFSVKCAGMTDKIKKEVTFENFKVGFSRKMKPKPVQVPGGVVLVDDTFTIK
**Q.** What does the source list for B5?
**A.** TP-dAMP formation with a limiting amount of TP in competition with the DNA polymerase mutant D249E, relative to that without competitor (interference assay) [1]: < 50%; protein-primed initiation (TP-dAMP formation) on Phi29 TP-DNA template, activity with respect to the wild-type enzyme (100) [2]: 3 % of wild-type
